US20230049152A1 (Genentech, published 2023)
Blank lines part the entries; values can stand above or below the binder they belong to.

Key:
human CCR8 [1] = molecular target: T1, human CCR8 (human, UniProt P51685 1-355); assay: flow cytometry, CHO-huCCR8.Gna15 cells, relative to rb.Ab4
T1 construct: the assay field says which; also called hCCR8; huCCR8
Method: (§1) Evaluation of CCR8 binding of the humanized variants with a hIgG1 Fc involved screening by flow cytometry, and comparing the relative EC₅₀ and MFI on human CCR8 CHO cells to the parental rabbit antibodies. Specifically, stable CHO-huCCR8.Gna15 cells were stained with various concentrations (starting from 10 ug/ml or 66.66 nM, 1:4 serial dilution for total 8 concentration points) of Ab4 and Ab5 variants at 4° C. for 30 minutes, then washed twice with FACS buffer (PBS with 0.5% BSA and 0.2 mM EDTA) and followed by staining with AF647-anti-hIgG at 4° C. for 15 min. Cells were washed twice with FACS buffer, and re-suspended in FACS buffer with propidium iodide (0.5 ug/ml) and analyzed with iQue3 (Sartorius).

human CCR8 [2] = molecular target: T1, human CCR8; assay: as above; remark: listed apart in the source
Method: as §1

human CCR8 [3] = molecular target: T1, human CCR8; assay: cell-based or functional assay
human CCR8 [4] = molecular target: T1, human CCR8; assay: cell-based or functional assay; remark: listed apart in the source
GST-FcgR3a.F158 [5] = molecular target: T2, GST-FcgR3a.F158 (UniProt P08637 17-208, limits assumed); assay: ELISA, GST-FcgR3a captured by anti-GST antibody
T2 construct: Captured by anti-GST antibody on ELISA plate; also called FcgR3a.F158 protein; Fcgamma RIIIa F158; not shown: GST tag
Method: (§2) The binding of fucosylated and afucosylated variants of hu.Ab5.H13L1 and hu.Ab4.H12L3 to both FcgR3a proteins by ELISA was studied. Briefly, an anti-GST antibody was coated on Nunc Maxisorp plates. GST-FcgR3a.V158 and GST-FcgR3a.F158 were captured at 500 ng/mL. Plates were then washed and then serially diluted anti-CCR8 antibodies starting at 100 ug/mL were incubated on the plate for 1 hour at room temperature. Plates were washed and bound antibody was detected by a HRP-conjugated anti-human IgG secondary antibody. Absorbance at 450 nm was measured by a plate reader. The data were fitted using a 4-parameter logistic curve in Softmax Pro.

GST-FcgR3a.V158 [6] = molecular target: T3, GST-FcgR3a.V158 (UniProt P08637 17-208, limits assumed); assay: ELISA, GST-FcgR3a captured by anti-GST antibody
T3 construct: Captured by anti-GST antibody on ELISA plate; also called FcgR3a.V158 protein; Fcgamma RIIIa V158; not shown: GST tag
Method: as §2

GST-FcgR3a.F158 [7] = molecular target: T2, GST-FcgR3a.F158; assay: ELISA, GST-FcgR3a.F158 captured by anti-GST antibody
Method: as §2

GST-FcgR3a.V158 [8] = molecular target: T3, GST-FcgR3a.V158; assay: ELISA, GST-FcgR3a.V158 captured by anti-GST antibody
Method: as §2

cyno CCR8 = molecular target: T4, cyno CCR8 (cynomolgus monkey, UniProt O97665 1-356 (rhesus entry)); assay: whole-blood flow cytometry of cyno blood spiked ex vivo with a saturating concentration of the antibody, detected with labeled goat anti-human IgG on FoxP3+ T-reg cells; relative percentage of CCR8+ T-reg cells
T4 construct: also called cynomolgus monkey CCR8
Method: Blood was collected from each of the animals before dosing (“Pre-study”), as well as on Day 1 at 0 hours (“Pre-dose”). Each of the animals were then administered a single dose of 10 mg/kg afucosylated anti-gD (Control Group), Afuc.hu.Ab5.H13L1 (Group 2) or Afuc.hu.Ab4.H12L3 (Group 3) via intravenous injection. Blood was then collected from the animals and subjected to the following treatment prior to flow cytometry analysis: (i) blood sample not spiked with either test CCR8 mAb (“unspiked”), (ii) blood sample further spiked with a saturating concentration of Afuc.hu.Ab5.H13L1, and (iii) blood sample further spiked with a saturating concentration of Afuc.hu.Ab4.H12L3. Each of the unspiked and spiked samples were subsequently treated with a labeled goat anti-human IgG antibody and analyzed by flow cytometry. […] Furthermore, flow cytometry of spiked blood also had very little effect on the total CCR8+T-reg cell count.
Anti-CCR8 antibodies Afuc.hu.Ab5.H13L1, Afuc.hu.Ab4.H12L3, and the control anti-gD were used for this study.

human CCR8 [9] = molecular target: T1, human CCR8; assay: flow cytometry, CHO-huCCR8.Gna15 cells, relative to rb.Ab5
Method: as §1

human CCR8 [10] = molecular target: T1, human CCR8; assay: as above; remark: listed apart in the source
Method: as §1

T2 sequence (P08637 17-208 limits assumed): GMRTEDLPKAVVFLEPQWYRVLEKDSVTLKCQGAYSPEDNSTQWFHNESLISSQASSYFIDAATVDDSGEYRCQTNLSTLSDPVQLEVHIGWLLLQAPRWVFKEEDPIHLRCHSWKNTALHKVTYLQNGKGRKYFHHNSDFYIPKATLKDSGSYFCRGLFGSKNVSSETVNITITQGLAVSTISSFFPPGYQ
T3 sequence (P08637 17-208 F176V limits assumed): as the sequence (P08637 17-208 limits assumed) above, with F160V counted along it
T4 sequence (O97665 other isoform, or with tags, fused parts or gaps): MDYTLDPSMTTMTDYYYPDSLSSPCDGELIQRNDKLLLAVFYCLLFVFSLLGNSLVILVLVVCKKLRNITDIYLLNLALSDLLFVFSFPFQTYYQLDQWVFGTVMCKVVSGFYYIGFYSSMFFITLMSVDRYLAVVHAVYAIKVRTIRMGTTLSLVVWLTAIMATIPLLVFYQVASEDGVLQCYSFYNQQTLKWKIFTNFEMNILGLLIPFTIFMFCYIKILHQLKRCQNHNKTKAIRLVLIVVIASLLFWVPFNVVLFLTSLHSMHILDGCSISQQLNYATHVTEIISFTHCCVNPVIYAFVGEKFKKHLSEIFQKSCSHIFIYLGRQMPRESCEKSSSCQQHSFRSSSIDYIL

Relative EC50 (human CCR8 [1]): 1 ratio
Relative MFI (human CCR8 [1]): 1 ratio
Relative EC50 (human CCR8 [2]): 1 ratio
Relative MFI (human CCR8 [2]): 1 ratio
B1: rb.Ab4 (antibody, V domains shown)
VH: QSVEESGGRLVTPGTPLTLTCTVSGFSLSNYAMIWVRQAPGEGLEWVGTISLGGYTYYANWAKGRFTISKTSTTVDLKISSPTTEDTATYFCARARWSTDSAIYTYAFDPWGPGTLVTVSS
VL: AYDMTQTPASVEVAVGGTVTIKCQASQSISSYLSWYQQKPGQRPELLIYKASTLASGVSSRFKGSGSGTQFTLTISDLECADAATYYCQQGYTSSNIDNIFGGGTEVVVK
notes: Rabbit variable regions; also called parental rabbit antibody Ab4

ADCC EC50, NK-92 F158 cells (FIG. 11A) (human CCR8 [3]): 0.006 nM
ADCC EC50, NK-92 F158 cells (FIG. 11C) (human CCR8 [3]): 0.006 nM
ADCC EC50, NK-92 V158 cells (FIG. 11B) (human CCR8 [3]): 0.011 nM
ADCP EC50, macrophages HR/FF (FIG. 14A) (human CCR8 [4]): 0.025 nM
ADCP EC50, macrophages HR/FF (FIG. 14E) (human CCR8 [4]): 0.035 nM
ADCP EC50, macrophages HR/VF (FIG. 14C) (human CCR8 [4]): 0.017 nM
ADCP EC50, macrophages RR/FF (FIG. 14B) (human CCR8 [4]): 0.12 nM
ADCP EC50, macrophages RR/VF (FIG. 14D) (human CCR8 [4]): 0.079 nM
fold increase in binding potency versus fucosylated counterpart (GST-FcgR3a.F158 [5]): ~10 fold
fold increase in binding potency versus fucosylated counterpart (GST-FcgR3a.V158 [6]): ~10 fold
EC50 (GST-FcgR3a.F158 [7]): 0.08 µg/mL
EC50 (GST-FcgR3a.V158 [8]): 0.033 µg/mL
binding result (cyno CCR8): binds
B2: Afuc.hu.Ab4.H12L3 (antibody, human IgG1, kappa)
heavy: not shown
light: DYQMTQSPSSLSASVGDRVTITCQASQSISSYLSWYQQKPGKAPKLLIYKASTLASGVPSRFSGSGSGTDFTLTISSLQPEDFATYYCQQGYTSSNIDNIFGGGTKVEIKRTVAAPSVFIFPPSDEQLKSGTASVVCLLNNFYPREAKVQWKVDNALQSGNSQESVTEQDSKDSTYSLSSTLTLSKADYEKHKVYACEVTHQGLSSPVTKSFNRGEC
modifications: afucosylated Fc N-glycan at position Asn299; between about 80% to about 95% afucosylation
notes: also called Afuc.Ab4.H12L3; afucosylated hu.Ab4.H12L3

Relative EC50 (human CCR8 [1]): 1.23 ratio
Relative MFI (human CCR8 [1]): 1 ratio
B3: hu.Ab4.H1L3 (antibody, human IgG1, kappa)
heavy: not shown
light: DYQMTQSPSSLSASVGDRVTITCQASQSISSYLSWYQQKPGKAPKLLIYKASTLASGVPSRFSGSGSGTDFTLTISSLQPEDFATYYCQQGYTSSNIDNIFGGGTKVEIKRTVAAPSVFIFPPSDEQLKSGTASVVCLLNNFYPREAKVQWKVDNALQSGNSQESVTEQDSKDSTYSLSSTLTLSKADYEKHKVYACEVTHQGLSSPVTKSFNRGEC

Relative EC50 (human CCR8 [2]): 1.07 ratio
Relative MFI (human CCR8 [2]): 0.77 ratio
B4: hu.Ab4.H10L1 (antibody, human IgG1, kappa)
heavy: not shown
light: DYQMTQSPSSLSASVGDRVTITCQASQSISSYLSWYQQKPGKRPKLLIYKASTLASGVPSRFSGSGSGTDFTLTISSLQPEDFATYYCQQGYTSSNIDNIFGGGTKVEIKRTVAAPSVFIFPPSDEQLKSGTASVVCLLNNFYPREAKVQWKVDNALQSGNSQESVTEQDSKDSTYSLSSTLTLSKADYEKHKVYACEVTHQGLSSPVTKSFNRGEC

Relative EC50 (human CCR8 [1]): 1.04 ratio
Relative MFI (human CCR8 [1]): 0.8 ratio
B5: hu.Ab4.H1L4 (antibody, human IgG1, kappa)
heavy: not shown
light: DIQMTQSPSSLSASVGDRVTITCQASQSISSYLSWYQQKPGKAPKLLIYKASTLASGVPSRFSGSGSGTDFTLTISSLQPEDFATYYCQQGYTSSNIDNIFGGGTKVEIKRTVAAPSVFIFPPSDEQLKSGTASVVCLLNNFYPREAKVQWKVDNALQSGNSQESVTEQDSKDSTYSLSSTLTLSKADYEKHKVYACEVTHQGLSSPVTKSFNRGEC

Relative EC50 (human CCR8 [2]): 0.88 ratio
Relative MFI (human CCR8 [2]): 0.66 ratio
B6: hu.Ab4.H11L1 (antibody, human IgG1, kappa, V domains shown)
VH: EVQLLESGGGLVQPGGSLRLSCAASGFSLSNYAMIWVRQAPGKGLEWVSTISLGGYTYYANWAKGRFTISRDNSKNTLYLQMNSLRAEDTAVYYCARARWSTDSAIYTYAFDPWGQGTLVTVSS
VL: DYQMTQSPSSLSASVGDRVTITCQASQSISSYLSWYQQKPGKRPKLLIYKASTLASGVPSRFSGSGSGTDFTLTISSLQPEDFATYYCQQGYTSSNIDNIFGGGTKVEIKR

Relative EC50 (human CCR8 [1]): 1.06 ratio
Relative MFI (human CCR8 [1]): 0.73 ratio
B7: hu.Ab4.H1L2 (antibody, human IgG1, kappa)
heavy: not shown
light: DIQMTQSPSSLSASVGDRVTITCQASQSISSYLSWYQQKPGKRPKLLIYKASTLASGVPSRFSGSGSGTDFTLTISSLQPEDFATYYCQQGYTSSNIDNIFGGGTKVEIKRTVAAPSVFIFPPSDEQLKSGTASVVCLLNNFYPREAKVQWKVDNALQSGNSQESVTEQDSKDSTYSLSSTLTLSKADYEKHKVYACEVTHQGLSSPVTKSFNRGEC

Relative EC50 (human CCR8 [9]): 1 ratio
Relative MFI (human CCR8 [9]): 1 ratio
Relative EC50 (human CCR8 [10]): 1 ratio
Relative MFI (human CCR8 [10]): 1 ratio
B8: rb.Ab5 (antibody, V domains shown)
VH: QSVEESGGRLVSPGTPLTLTCTVSGIDLSTYAMGWVRQAPGKGLEWIGLIHRSGRTYYATWAKGRFTISKTSSTTVDLKITSPTTEDTATYFCTRSYPDYSATASIWGPGTLVTVSS
VL: DIVVTQTPASVEAAVGGTVTIKCQASENIANALAWYQQKSGQPPMFLIYGASNLASGVSSRFKGSGSGTEFTLTISDLECADAAVYYCQCAYYGNSFVEGTFGGGTEVVVK
notes: Rabbit variable regions; also called parental rabbit antibody Ab5

Relative EC50 (human CCR8 [9]): 1.4 ratio
Relative MFI (human CCR8 [9]): 0.79 ratio
B9: hu.Ab5.H1L2 (antibody, human IgG1, kappa)
heavy: not shown
light: DIQMTQSPSSLSASVGDRVTITCQASENIANALAWYQQKPGKPPKFLIYGASNLASGVPSRFSGSGSGTDFTFTISSLQPEDIATYYCQQAYYGNSFVEGTFGGGTKVEIKRTVAAPSVFIFPPSDEQLKSGTASVVCLLNNFYPREAKVQWKVDNALQSGNSQESVTEQDSKDSTYSLSSTLTLSKADYEKHKVYACEVTHQGLSSPVTKSFNRGEC

Relative EC50 (human CCR8 [9]): 0.3 ratio
Relative MFI (human CCR8 [9]): 0.31 ratio
B10: hu.Ab5.H1L5 (antibody, human IgG1, kappa, V domains shown)
VH: EQQLLESGGGLVQPGGSLRLSCAVSGIDLSTYAMGWVRQAPGKGLEWIGLIHRSGRTYYATWAKGRFTISKDSSKTTVYLQMNSLRAEDTAVYFCTRSYPDYSATASIWGPGTTVTVSS
VL: DIQMTQSPSSLSASVGDRVTITCQASENIANALAWYQQKPGKAPKLLIYGASNLASGVPSRFSGSGSGTDFTFTISSLQPEDIATYYCQQAYYGNSFVEGTFGGGTKVEIKR

Relative EC50 (human CCR8 [9]): 1.7 ratio
Relative MFI (human CCR8 [9]): 0.51 ratio
B11: hu.Ab5.H1L4 (antibody, human IgG1, kappa, V domains shown)
VH: EQQLLESGGGLVQPGGSLRLSCAVSGIDLSTYAMGWVRQAPGKGLEWIGLIHRSGRTYYATWAKGRFTISKDSSKTTVYLQMNSLRAEDTAVYFCTRSYPDYSATASIWGPGTTVTVSS
VL: DIQVTQSPSSLSASVGDRVTITCQASENIANALAWYQQKPGKPPKLLIYGASNLASGVPSRFSGSGSGTDFTFTISSLQPEDIATYYCQQAYYGNSFVEGTFGGGTKVEIKR

Relative EC50 (human CCR8 [9]): 1.5 ratio
Relative MFI (human CCR8 [9]): 0.81 ratio
B12: hu.Ab5.H1L3 (antibody, human IgG1, kappa, V domains shown)
VH: EQQLLESGGGLVQPGGSLRLSCAVSGIDLSTYAMGWVRQAPGKGLEWIGLIHRSGRTYYATWAKGRFTISKDSSKTTVYLQMNSLRAEDTAVYFCTRSYPDYSATASIWGPGTTVTVSS
VL: DIQVTQSPSSLSASVGDRVTITCQASENIANALAWYQQKPGKAPKFLIYGASNLASGVPSRFSGSGSGTDFTFTISSLQPEDIATYYCQQAYYGNSFVEGTFGGGTKVEIKR
